The experiment has as its target GST-GCN5. Description: pull-down; GST-GCN5 (1 ug) immobilised on glutathione beads, pre-treated with DNase I and RNase H; incubated with 600 c.p.m. of in vitro translated [35S]-IN proteins in 0.2 mg/ml ethidium bromide; SDS-PAGE and phosphoimaging; bound protein as percent of radiolabeled input.
Chain of GST-GCN5 (Q92830 2-837): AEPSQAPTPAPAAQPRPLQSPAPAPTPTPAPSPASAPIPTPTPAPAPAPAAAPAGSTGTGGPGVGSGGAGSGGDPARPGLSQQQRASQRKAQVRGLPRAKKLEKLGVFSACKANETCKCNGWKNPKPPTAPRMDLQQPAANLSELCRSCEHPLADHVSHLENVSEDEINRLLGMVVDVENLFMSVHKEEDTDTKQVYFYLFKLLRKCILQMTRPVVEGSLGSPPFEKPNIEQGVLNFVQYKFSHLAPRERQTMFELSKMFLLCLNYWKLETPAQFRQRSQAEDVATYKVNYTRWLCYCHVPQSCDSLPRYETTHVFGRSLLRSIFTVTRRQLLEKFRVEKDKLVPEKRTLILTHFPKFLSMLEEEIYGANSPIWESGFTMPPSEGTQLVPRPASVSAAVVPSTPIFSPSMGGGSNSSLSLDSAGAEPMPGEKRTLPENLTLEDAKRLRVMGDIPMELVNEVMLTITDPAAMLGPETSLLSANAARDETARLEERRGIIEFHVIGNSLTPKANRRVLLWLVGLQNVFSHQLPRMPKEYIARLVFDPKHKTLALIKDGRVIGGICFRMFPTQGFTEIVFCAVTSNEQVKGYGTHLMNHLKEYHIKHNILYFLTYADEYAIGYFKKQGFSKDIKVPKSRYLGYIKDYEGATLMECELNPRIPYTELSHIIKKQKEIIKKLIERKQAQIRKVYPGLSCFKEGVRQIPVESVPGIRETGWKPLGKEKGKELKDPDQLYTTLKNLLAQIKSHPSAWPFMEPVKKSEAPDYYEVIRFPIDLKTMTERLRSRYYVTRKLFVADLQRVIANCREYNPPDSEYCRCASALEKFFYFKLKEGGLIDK
Regarding “35S-IN fragment 1-272 (from UniProt P04585 2-273) (domain or fragment)”, the binding efficiency (percent of radiolabeled input bound) worked out at 13%.

As for “35S-IN, full-length HIV-1 integrase, in vitro translated (from UniProt P04585) (enzyme)”, the binding efficiency (percent of radiolabeled input bound) was determined as 16%.

Consider “35S-IN fragment 1-263 (from UniProt P04585 2-264) (domain or fragment)”, for which the binding efficiency (percent of radiolabeled input bound) stood at 13%.

The record behind these values is article PMC2848186.
